This note sets out measurements from patent US20170002084A1 (VET THERAPEUTICS, published 2017).

Residue numbers refer to the chain shown, from its start.

T1: Feline CD20 (feline)
T1 construct: also called recombinant feline CD20
T1 chain: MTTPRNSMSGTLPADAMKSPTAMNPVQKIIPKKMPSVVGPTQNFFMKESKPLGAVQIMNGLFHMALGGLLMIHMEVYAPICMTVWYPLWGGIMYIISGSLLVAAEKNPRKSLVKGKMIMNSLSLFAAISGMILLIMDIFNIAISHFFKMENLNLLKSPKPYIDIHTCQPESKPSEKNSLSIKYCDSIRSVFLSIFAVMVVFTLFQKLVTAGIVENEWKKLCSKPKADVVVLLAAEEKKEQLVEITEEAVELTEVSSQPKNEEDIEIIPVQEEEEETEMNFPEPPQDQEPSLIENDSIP

T2: Canine CD20 (canine, UniProt Q3C2E2 1-297)
T2 construct: also called recombinant canine CD20; dog CD20
T2 chain: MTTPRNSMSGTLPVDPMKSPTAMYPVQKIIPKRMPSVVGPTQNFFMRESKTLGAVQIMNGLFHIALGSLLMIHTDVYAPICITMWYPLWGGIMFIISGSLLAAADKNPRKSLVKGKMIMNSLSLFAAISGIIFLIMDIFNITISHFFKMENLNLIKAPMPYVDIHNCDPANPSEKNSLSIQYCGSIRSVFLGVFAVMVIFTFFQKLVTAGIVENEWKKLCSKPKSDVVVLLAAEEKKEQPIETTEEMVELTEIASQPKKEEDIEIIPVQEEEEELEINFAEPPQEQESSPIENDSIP

B1: anti-canine CD20 antibody CD20-2 (VET305) (antibody)
heavy: QVQLQQSRAELVRPGASVTLSCKPSGYTFTDYEVHWVKQTPVHGLEWIGAIDPETGGTADNQKFKGKAILTADKSSSTAYMELRSLTSEDSAVYYCTNFVDVWGTGTTVTVSSASTTAPSVFPLAPSCGSQSGSTVALACLVSGYFPEPVTVSWNSGSLTSGVHTFPSVLQSSGLYSLSSMVTVPSSRWPSETFTCNVAHPASKTKVDKPVPKRENGRVPRPPDCPKCPAPEMLGGPSVFIFPPKPKDTLLIARTPEVTCVVVDLDPEDPEVQISWFVDGKQMQTAKTQPREEQFNGTYRVVSVLPIGHQDWLKGKQFTCKVNNKALPSPIERTISKARGQAHQPSVYVLPPSREELSKNTVSLTCLIKDFFPPDIDVEWQSNGQQEPESKYRTTPPQLDEDGSYFLYSKLSVDKSRWQRGDTFICAVMHEALHNHYTQKSLSHSPGK
light: DVVMSQSPSSLAVSVGEKVTMSCKSSQSLLYSGNQKNYLAWYQQKPGQSPRLLIYWASTRESGVPDRFTGSGSGTDFTLTISSVKAEDLAVFYCQQYYNYPLTFGGGTHLTVLGQPKASPSVTLFPPSSEELGANKATLVCLISDFYPSGVTVAWKADGSPITQGVETTKPSKQSNNKYAASSYLSLTPDKWKSHSSFSCLVTHEGSTVEKKVAPAECS
notes: also called Mab CD20-2
B2: anti-canine CD20 antibody CD20-6 (VET309) (antibody, V domains shown)
VH: EIQLQQSGAELVRPGASVTLSCKASGYTFTDYEMHWVKQTPVHGLEWIGGIDPETGGTAYNQKFKGKAILTADKSSSTVYMELRSLTSEDSAVYYCTRDYGTSGYWGQGTLVTVSS
VL: DVVVTQTPLSLPVSFGDQVSISCRSSQSLANSYGNTYLSWYLHKPGQSPQLLIYGISNRFSGVPDRFSGSGSGTDFTLKISRVEAEDLGVYFCSQSTHVPWTFGGGTHLTVLG
notes: also called Mab CD20-6
B3: anti-canine CD20 antibody CD20-5 (VET308) (antibody, V domains shown)
VH: QVQLKQSGAELVKPGASVKISCKASGYTFTDYYINWVKQRPGQGLEWIGKIGPRSGSIYYNEKFKGKATLTADKSSSTAYMQLRSLTSEDSAVYFCAVLKWGQGTLVTVSS
VL: not shown
notes: also called Mab CD20-5
B4: VET 135 × VET 257 (antibody, V domains shown)
VH: EIQLQQSGAELVKPGASVKISCKASGYTFTDYYINWVKQRPGQGLEWIGKIGPGSGRTYYNEKFKGKATLTADKSSSTAYIQISSLTSEDSAVYFCAVLSWGQGTTLTVSS
VL: DVVMSQSPSSLAVSVGEKVTMSCKSSQSLLYSGNQKNYLAWYQQKPGQSPRLLIYWASTRESGVPDRFTGSGSGTDFTLTISSVKAEDLAVFYCQQYYNYPLTFGAGTKLELKG
notes: Mixed pairing: CD20-2 light chain with CD20-1 heavy chain; also called VET135 x VET257
B5: VET 133 × VET 257 (antibody, V domains shown)
VH: B4 VH
VL: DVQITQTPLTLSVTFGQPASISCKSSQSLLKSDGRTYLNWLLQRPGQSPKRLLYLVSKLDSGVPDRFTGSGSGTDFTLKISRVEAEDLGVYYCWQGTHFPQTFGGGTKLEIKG
notes: Light chain vector VET133 co-transfected with heavy chain vector VET257 in 293F cells; mouse variable domains on canine constant domains; also called VET133 x VET257
B6: VET 133 × VET 260 (antibody, V domains shown)
VH: QVQLQQSRAELVRPGASVTLSCKPSGYTFTDYEVHWVKQTPVHGLEWIGAIDPETGGTADNQKFKGKAILTADKSSSTAYMELRSLTSEDSAVYYCTNFVDVWGTGTTVTVSS
VL: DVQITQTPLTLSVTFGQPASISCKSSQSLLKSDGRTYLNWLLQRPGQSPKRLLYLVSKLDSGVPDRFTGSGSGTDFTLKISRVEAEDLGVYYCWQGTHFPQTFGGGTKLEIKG
notes: Mixed pairing: CD20-1 light chain with CD20-2 heavy chain; also called VET133 x VET260
B7: VET 135 × VET 260 (antibody)
heavy: B1 heavy
light: B1 light with G106A, H109K, T111E, V112L, L113K
notes: CD20-2 variable domains on canine constant domains; light chain differs from VET305 (which has the FR4T light chain); also called VET135 x VET260
B8: VET 124 × VET 237 (antibody, V domains shown)
VH: EVQLQQSVAELVRPGASVTLSCKASGYTFTDYEMHWVKQTPVHGLEWIGEIDPETGGTAYNQKFKGKAILTADKSSSTAYMELRSLTSEDSAVYYCTEYAMDYWGQGTLVTVSS
VL: not shown
notes: also called VET124 x VET237
B9: anti-canine CD20 antibody CD20-1 (antibody, V domains shown)
VH: B4 VH
VL: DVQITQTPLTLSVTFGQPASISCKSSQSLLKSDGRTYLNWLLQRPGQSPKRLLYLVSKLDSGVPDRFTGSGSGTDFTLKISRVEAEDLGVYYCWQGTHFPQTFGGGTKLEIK
notes: called 'recombinant anti-canine CD20 antibody'; also called Mab CD20-1

One assay deals with T1, Feline CD20. The experiment in a line: FACS on mammalian cells expressing recombinant feline CD20, antibody 2.5 µg/mL. Here is the method: (§1) In the present example, the antibody variants (2.5 μg/mL) are incubated with mammalian cells expressing the recombinant feline CD20 or canine CD20 or control cells. The amount of bound antibody is assessed by detection with a fluorescent-labeled reporter antibody reagent. Several controls are utilized to determine the background fluorescence: (i) CD20 expressing cells are incubated with the conjugated secondary antibody with an isotype antibody, and (ii) Control cells are incubated with the anti-CD20 antibodies.
(§2) The results reported as mean fluorescence units evidence effective binding of the antibodies CD20-2, CD20-5, and CD20-6 to the recombinant canine CD20 expressed in HEK cells. Only CD20-2 and CD20-5 antibodies bind feline CD20 expressed in mammalian cells.
As to B1, the mean fluorescence units stood at 2210 mean fluorescence units.
The same measure, in the same setting: then B2, with 60 mean fluorescence units; and B3, with 2048 mean fluorescence units.

The next assay has as its target T2, Canine CD20. The assay is described as follows: FACS on CHO cells expressing recombinant canine CD20. Here is the method:
The antibody variants of the present invention are compared for their binding affinity to canine CD20. Binding affinity is assessed by measuring binding to the recombinant canine CD20 expressed in CHO cells by FACS analysis as described above.
With B1, the Kd is 8.85 nM.
On the same count and under the same terms, then B2, with 63.4 nM; and B3, with 1.21 nM.

In another assay the target is T2, Canine CD20. The assay is described as follows: cell-based or functional assay.
Regarding B1, the “Reduction (%) of cell proliferation of lymphoma cells” value is 55%.
Same read-out and setting: then B2, with 27.6%; and B3, with 60.1%.

Another assay deals with T2, Canine CD20. The assay is described as follows: FACS on HEK cells expressing recombinant canine CD20, antibody 2.5 µg/mL. Here is the method:
as §1, §2
As for B1, the mean fluorescence units came to 2340 mean fluorescence units.
Same read-out and setting: then B2, with 2110 mean fluorescence units.
As to B3, the mean fluorescence units is 2770 mean fluorescence units.

In a further assay the target is T2, Canine CD20. The assay is described as follows: FACS on canine PBMC, 2 µg antibody, FITC anti-dog IgG. Here is the method: In the present example, the antibody variants are incubated with the CD20 positive cells and the amount of bound antibody is assessed following incubation with a fluorescent-labeled reporter reagent. The reporter is thereafter measured by FACS.
Briefly, for each assay, one million cells of Peripheral Blood Mononuclear Cell (PBMC) isolated from whole blood from a normal dog by standard techniques were resuspended in FACS buffer (PBS+2% FBS). Two μg of the primary antibody are added to the cells and the samples were incubated at 4° C. for 1 h. The primary antibody is provided as supernatants from transfected cells with recombinant antibody constructs or from purified antibody preparation. The mouse anti-dog CD21 mAb (Serotec) recognizing B-lymphocytes is added to the cells as a control to estimate the percentage of B-lymphocytes in a given sample. One ml of FACS buffer are added and cells are spun down for 3 min at 800×g in Eppendorf microcentrifuge. The cells are washed with 1 mL FACS buffer and spun down again. The secondary antibodies such as fluorescein-isothiocynate (FITC) conjugated goat anti-mouse kappa (mFITC, Jackson ImmunoResearch), or the FITC-conjugated goat anti-dog IgG (H+L) (dFITC, Bethyl Laboratories) are added in 100 μL of FACS buffer supplemented with 1% BSA to appropriate tubes and the tubes were incubated at 4° C. for 30 minutes. The wash steps are repeated. The cells are then resuspended in 500 μL FACS buffer and transferred into 12×75 mm polystyrene test tubes. The cells are analyzed by FACS with a FacScan cytometer using the CellQuest software (Becton-Dickenson). Analysis gates are set on the live lymphocyte population based on typical forward and side scatter characteristics. Several controls are utilized to determine the background fluorescence: (i) one tube of cells is incubated with the FITC-conjugated secondary antibody without the primary antibody, and (ii) one tube of cells is incubated with PBS only.
The overall percentage of B-cell subset in this sample is estimated to be approximately 12% based on the binding of the anti-dog CD21 mab control. The results of Table 3 evidence effective binding of the antibody variants to lymphocytes.
As for B4, the “% Lymphocytes” value came to 8.33% and the “Mean Fluorescence” value is 2500.
With B5, the “% Lymphocytes” value was 12% and the “Mean Fluorescence” value was found to be 3170.
For the molecule B6, the “% Lymphocytes” value was 13.7% and the “Mean Fluorescence” value was 2910.
For B7, in that order: 12.7% and 2660.
The corresponding values for B8 are 13% and 2660.

The target of the next assay is T2, Canine CD20. The assay is described as follows: FACS on CHO cells expressing recombinant canine CD20. This is another data set of the same source.
As for B9, the Kd is 1 nM.

For a further assay, the target named is T1, Feline CD20. The experiment in a line: FACS on mammalian cells expressing recombinant feline CD20. How it is done: as §1, §2
For B2, the binding result is given as “no binding (tested: 2.5 µg/mL)”.
